Source: patent publication US20240166755A1, “CHIMERIC ANTIGEN RECEPTORS TARGETING CANCER” (University of Southern California, priority 2016, published 2024)

What was measured:
[1] = tested on: RAJI cells stably expressing GLuc; assay: GLuc cell death assay, RAJI-GLuc target cells
Excerpt: Cells were left unselected or selected with puromycin and expanded.

[2] = tested on: MPL-expressing HEL.92.1.7 (HEL) cells; assay: Jurkat-NFAT-EGFP reporter assay, co-culture with HEL cells (Table 25); type: cell-based, human; conditions: FACS
Excerpt: (§1) Cells were subsequently co-cultured with MPL-expressing HEL.92.1.7 (HEL) cells. […] CAR construct with HEL cells. The experiment was repeated by co-culturing the Jurkat-NFAT-EGFP cells with either RAJI cells, which have weak MPL expression, or with RAJI-MPL cells that were engineered to ectopically express human MPL receptor.

RAJI-MPL cells = assay: Jurkat-NFAT-EGFP reporter assay, co-culture with RAJI-MPL or RAJI-vector cells (Table 25); type: cell-based, human; conditions: RAJI-MPL cells compared with RAJI-vector cells
Excerpt: as §1

[3] = tested on: HEL cells stably expressing GLuc; assay: GLuc cell death assay, HEL-GLuc target cells; conditions: for killing of HEL-GLuc cells: CAR-expressing PBMC, 4 h, versus uninfected PBMC; for GLuc activity (lysis of target cells): T cells, puromycin selected, E:T 10:1, 4 hours
Procedure: The blood samples to isolate Peripheral blood mononuclear cells (PBMCs) were obtained from healthy de-identified adult donors. PBMC were isolated from buffy coats by Ficoll-Hypaque gradient centrifugation and re-suspended in XVIVO medium (Lonza) supplanted with 10 ng/ml soluble anti-CD3, 10 ng/ml soluble anti-CD28 and 100 IU recombinant human-IL2. […] The PBMC expressing the indicated CARs and uninfected PBMC were co-cultured with HEL-GLuc target cells for 4 h and lysis of target cells measured by the single-step homogenous GLuc assay by injecting 0.5× CTZ assay buffer as described above.
Cells were selected with puromycin and expanded.
Cells were subsequently co-cultured overnight with HEL.92.1.7 cells that had been engineered to express GLuc.

[4] = tested on: Jurkat cells stably expressing MPL and GLuc; assay: GLuc cell death assay, Jurkat-MPL-GLuc target cells; conditions: T cells, puromycin selected, E:T 10:1, 4 hours

| Molecule | cell death (increase in Gluc activity) ([1]; RAJI-pLenti-Gluc cells incubated with the CAR-T cells) | GLuc activity (lysis of target cells) ([1]; T cells with or without puromycin selection, E:T 10:1, 96 hours) | EGFP expression (NFAT-EGFP reporter) [2] | EGFP expression (NFAT-EGFP reporter) (RAJI-MPL cells) | killing of HEL-GLuc cells [3] | GLuc activity (lysis of target cells) [3] | GLuc activity (lysis of target cells) [4] |
| --- | --- | --- | --- | --- | --- | --- | --- |
| CD8SP-CD19Bu12-(vL-vH)-Myc-BBz-T2A-PAC(082815-P08): CD19 CAR with scFv from humanized CD19 antibody huCD19-Bu12, 41BB and CD3z (protein, listed as DNA) MALPVTALLLPLALLLHAARPDEIVLTQSPATLSLSPGERATLSCSASSSVSYMHWYQQKPGQAPRLLIYDTSKLASGIPARFSGSGSGTDFTLTISSLEPEDVAVYYCFQGSVYPFTFGQGTKLEIKRGGGGSGGGGSGGGGSQVQLQESGPGLVKPSQTLSLTCTVSGGSISTSGMGVGWIRQHPGKGLEWIGHIWWDDDKRYNPALKSRVTISVDTSKNQFSLKLSSVTAADTAVYYCARMELWSYYFDYWGQGTLVTVSSTREQKLISEEDLAKPTTTPAPRPPTPAPTIASQPLSLRPEACRPAAGGAVHTRGLDFACDIYIWAPLAGTCGVLLLSLVITLYCKRGRKKLLYIFKQPFMRPVQTTQEEDGCSCRFPEEEEGGCELRVKFSRSADAPAYQQGQNQLYNELNLGRREEYDVLDKRRGRDPEMGGKPRRKNPQEGLYNELQKDKMAEAYSEIGMKGERRRGKGHDGLYQGLSTATKDTYDALHMQALPPRSSGSGEGRGSLLTCGDVEENPGPHMTEYKPTVRLATRDDVPRAVRTLAAAFADYPATRHTVDPDRHIERVTELQELFLTRVGLDIGKVWVADDGAAVAVWTTPESVEAGAVFAEIGPRMAELSGSRLAAQQQMEGLLAPHRPKEPAWFLATVGVSPDHQGKGLGSAVVLPGVEAAERAGVPAFLETSAPRNLPFYERLGFTVTADVEVPEGPRTWCMTRKPGA | significant induction of cell death | increase in GLuc activity |  |  |  |  |  |
| CD8SP-175-(vL-vH)-Myc-CD28z-T2A-PAC(031615-Q04): CAR construct targeting MPL, 175 scFv, CD28 costimulatory domain (protein, listed as DNA, CAR construct targeting MPL, 175 scFv, CD28 costimulatory domain) MALPVTALLLPLALLLHAARPDQIVLTQSPAIMSASPGEKVTISCSASSSVSYMYWYQQKPGSSPKPWIYRTSNLASGVPARFSGSGSGTSYSLTISNMEAEDAAAYYCQQYHSYPTTFGGGTKLEVKGGGGSGGGGSGGGGSEVQLVESGGGLVQPKGSLKLSCAASGFSFNTYAMNWVRQAPGKGLEWIAHIRSKSNNFATYYADSVKDRFSISRDASENILFLQMNNLKTEDTAMYYCVRQGGDFPMDYWGQGTSVTVSSTREQKLISEEDLKIEVMYPPPYLDNEKSNGTIIHVKGKHLCPSPLFPGPSKPFWVLVVVGGVLACYSLLVTVAFIIFWVRSKRSRLLHSDYMNMTPRRPGPTRKHYQPYAPPRDFAAYRSRVKFSRSADAPAYQQGQNQLYNELNLGRREEYDVLDKRRGRDPEMGGKPRRKNPQEGLYNELQKDKMAEAYSEIGMKGERRRGKGHDGLYQGLSTATKDTYDALHMQALPPRSSGSGEGRGSLLTCGDVEENPGPHMTEYKPTVRLATRDDVPRAVRTLAAAFADYPATRHTVDPDRHIERVTELQELFLTRVGLDIGKVWVADDGAAVAVWTTPESVEAGAVFAEIGPRMAELSGSRLAAQQQMEGLLAPHRPKEPAWFLATVGVSPDHQGKGLGSAVVLPGVEAAERAGVPAFLETSAPRNLPFYERLGFTVTADVEVPEGPRTWCMTRKPGA |  |  | strongest | strongest | increased killing | stronger | stronger |
| CD8SP-161-(vL-vH)-Myc-CD28z-T2A-PAC(021715-Z07): CAR targeting MPL: 161 scFv with CD28 hinge, transmembrane and cytosolic domains and CD3z (protein, listed as DNA, CAR targeting MPL: 161 scFv with CD28 hinge, transmembrane and cytosolic domains and CD3z) MALPVTALLLPLALLLHAARPDDIQMTQSSSSFSVSLGDRVTITCMASEDIYIRLAWYQQKPGNAPRLLISAATSLETGVPSRFSGSGSGKDYTLSITSLQTEDVGTYYCQQYWSSPWTFGGGTKLEINGGGGSGGGGSGGGGSDVQLQESGPGLVKPSQSLSLTCTVTGYSITSDYTWNWIRQFPGNKLEWMGYITYSGSTSYNPSLKSRNSITRDTSKNQFFLQLNSVTTEDTATYYCARLGRRYTMDYWGQGTSVTVSSTREQKLISEEDLKIEVMYPPPYLDNEKSNGTIIHVKGKHLCPSPLFPGPSKPFWVLVVVGGVLACYSLLVTVAFIIFWVRSKRSRLLHSDYMNMTPRRPGPTRKHYQPYAPPRDFAAYRSRVKFSRSADAPAYQQGQNQLYNELNLGRREEYDVLDKRRGRDPEMGGKPRRKNPQEGLYNELQKDKMAEAYSEIGMKGERRRGKGHDGLYQGLSTATKDTYDALHMQALPPRSSGSGEGRGSLLTCGDVEENPGPHMTEYKPTVRLATRDDVPRAVRTLAAAFADYPATRHTVDPDRHIERVTELQELFLTRVGLDIGKVWVADDGAAVAVWTTPESVEAGAVFAEIGPRMAELSGSRLAAQQQMEGLLAPHRPKEPAWFLATVGVSPDHQGKGLGSAVVLPGVEAAERAGVPAFLETSAPRNLPFYERLGFTVTADVEVPEGPRTWCMTRKPGA |  |  | strongest | strongest |  | stronger | stronger |
| CD8SP-MPL-161-(vL-vH)-Myc-BBz-T2A-PAC(021015-R07): CAR targeting MPL: 161 scFv, Myc tag, CD8 hinge/TM, 41BB, CD3z, T2A, puromycin resistance (protein, listed as DNA, CAR targeting MPL: 161 scFv, Myc tag, CD8 hinge/TM, 41BB, CD3z, T2A, puromycin resistance) MALPVTALLLPLALLLHAARPDDIQMTQSSSSFSVSLGDRVTITCMASEDIYIRLAWYQQKPGNAPRLLISAATSLETGVPSRFSGSGSGKDYTLSITSLQTEDVGTYYCQQYWSSPWTFGGGTKLEINGGGGSGGGGSGGGGSDVQLQESGPGLVKPSQSLSLTCTVTGYSITSDYTWNWIRQFPGNKLEWMGYITYSGSTSYNPSLKSRNSITRDTSKNQFFLQLNSVTTEDTATYYCARLGRRYTMDYWGQGTSVTVSSTREQKLISEEDLAKPTTTPAPRPPTPAPTIASQPLSLRPEACRPAAGGAVHTRGLDFACDIYIWAPLAGTCGVLLLSLVITLYCKRGRKKLLYIFKQPFMRPVQTTQEEDGCSCRFPEEEEGGCELRVKFSRSADAPAYQQGQNQLYNELNLGRREEYDVLDKRRGRDPEMGGKPRRKNPQEGLYNELQKDKMAEAYSEIGMKGERRRGKGHDGLYQGLSTATKDTYDALHMQALPPRSSGSGEGRGSLLTCGDVEENPGPHMTEYKPTVRLATRDDVPRAVRTLAAAFADYPATRHTVDPDRHIERVTELQELFLTRVGLDIGKVWVADDGAAVAVWTTPESVEAGAVFAEIGPRMAELSGSRLAAQQQMEGLLAPHRPKEPAWFLATVGVSPDHQGKGLGSAVVLPGVEAAERAGVPAFLETSAPRNLPFYERLGFTVTADVEVPEGPRTWCMTRKPGA |  |  | strongest | strongest | increased killing |  |  |
